Experimental data from PMC12597760.
Read-outs that look alike come from different tables or passages of the source. Blank lines part the entries; values can stand above or below the substance they belong to.

Tests used:
TGF-β2 [1] = molecular target: TGF-β2
TGF-β1 [2] = molecular target: TGF-β1
Synagis-T22d35 = Synagis-T22d35 (UniProt P37173); test: SPR
Synagis = test: SPR
TGF-β1 [3] = molecular target: TGF-β1; remark: listed apart in the source
Target sequence in this assay (P01137 279-390): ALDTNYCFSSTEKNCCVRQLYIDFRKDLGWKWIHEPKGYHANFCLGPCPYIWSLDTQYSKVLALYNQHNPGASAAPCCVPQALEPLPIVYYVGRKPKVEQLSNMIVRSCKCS

TGF-β1 [4] = molecular target: TGF-β1; remark: listed apart in the source
Target sequence in this assay (P01137 279-390): as above

TGF-β2 [5] = molecular target: TGF-β2; remark: listed apart in the source
Target sequence in this assay (P61812 303-414): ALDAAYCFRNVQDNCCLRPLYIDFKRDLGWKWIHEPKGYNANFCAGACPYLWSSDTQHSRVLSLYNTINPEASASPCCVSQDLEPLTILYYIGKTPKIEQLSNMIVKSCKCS

Sequence of Synagis (heavy, as listed by the source, chain 1 of 2): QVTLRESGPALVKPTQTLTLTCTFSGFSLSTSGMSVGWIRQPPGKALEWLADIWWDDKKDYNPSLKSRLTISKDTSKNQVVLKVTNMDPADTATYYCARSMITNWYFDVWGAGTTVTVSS
Sequence of Synagis (light, as listed by the source, chain 2 of 2): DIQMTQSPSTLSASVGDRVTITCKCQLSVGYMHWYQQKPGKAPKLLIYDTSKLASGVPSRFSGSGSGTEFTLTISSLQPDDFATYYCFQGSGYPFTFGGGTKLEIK
Sequence of RSV-F (P03420 26-574): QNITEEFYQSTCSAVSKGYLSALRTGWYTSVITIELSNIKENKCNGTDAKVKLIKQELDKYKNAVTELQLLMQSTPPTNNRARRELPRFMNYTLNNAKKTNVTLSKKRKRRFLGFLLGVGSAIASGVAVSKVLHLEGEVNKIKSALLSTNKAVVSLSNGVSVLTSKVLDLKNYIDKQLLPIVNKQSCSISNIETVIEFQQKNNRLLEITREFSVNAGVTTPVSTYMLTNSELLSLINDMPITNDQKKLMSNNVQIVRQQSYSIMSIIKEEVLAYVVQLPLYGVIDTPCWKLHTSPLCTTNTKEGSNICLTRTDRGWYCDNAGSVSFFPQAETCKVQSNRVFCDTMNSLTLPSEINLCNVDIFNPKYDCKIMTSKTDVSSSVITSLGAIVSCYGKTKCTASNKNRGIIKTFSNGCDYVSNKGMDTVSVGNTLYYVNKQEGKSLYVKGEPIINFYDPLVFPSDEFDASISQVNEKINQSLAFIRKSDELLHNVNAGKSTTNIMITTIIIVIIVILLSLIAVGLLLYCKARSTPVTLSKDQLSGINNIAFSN
Sequence of Avastin-T22d35 (P37173 whole entry, looked up): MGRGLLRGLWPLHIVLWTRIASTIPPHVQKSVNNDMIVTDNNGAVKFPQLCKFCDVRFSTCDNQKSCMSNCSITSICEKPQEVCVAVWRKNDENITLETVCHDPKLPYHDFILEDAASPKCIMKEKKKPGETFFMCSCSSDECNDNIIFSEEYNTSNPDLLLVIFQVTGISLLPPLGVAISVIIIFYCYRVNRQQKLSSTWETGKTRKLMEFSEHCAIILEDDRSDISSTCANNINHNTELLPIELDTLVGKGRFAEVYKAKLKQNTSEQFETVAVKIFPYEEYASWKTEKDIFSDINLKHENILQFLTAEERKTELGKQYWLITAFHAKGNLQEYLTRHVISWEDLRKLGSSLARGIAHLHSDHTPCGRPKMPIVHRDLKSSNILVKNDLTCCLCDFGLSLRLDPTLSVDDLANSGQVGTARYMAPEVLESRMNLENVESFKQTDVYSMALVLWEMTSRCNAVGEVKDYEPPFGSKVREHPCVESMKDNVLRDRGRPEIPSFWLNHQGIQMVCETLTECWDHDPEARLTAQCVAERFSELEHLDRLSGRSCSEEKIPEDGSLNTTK
Sequence of T22d35 (single-chain fusion of two TGF-β type II receptor ectodomains) (P37173 other isoform, or with tags, fused parts or gaps): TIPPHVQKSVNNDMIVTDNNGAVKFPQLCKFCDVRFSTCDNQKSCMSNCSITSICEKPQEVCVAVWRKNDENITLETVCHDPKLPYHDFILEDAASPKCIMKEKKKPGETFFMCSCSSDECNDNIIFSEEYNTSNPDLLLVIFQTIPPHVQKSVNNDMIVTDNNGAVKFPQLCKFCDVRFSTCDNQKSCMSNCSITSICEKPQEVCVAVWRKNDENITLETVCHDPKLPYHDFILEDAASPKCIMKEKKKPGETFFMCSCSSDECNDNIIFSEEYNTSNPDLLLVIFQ
Sequence of T22d35-hIgG2Fc(CC)ΔK (P37173 other isoform, or with tags, fused parts or gaps mutant): as the sequence (P37173 other isoform, or with tags, fused parts or gaps) above
Sequence of hIgG2Fc(CC)ΔK-T22d35 (P37173 other isoform, or with tags, fused parts or gaps mutant): as the sequence (P37173 other isoform, or with tags, fused parts or gaps) above

Substance: Avastin-T22d35 (from UniProt P37173 23-166; P37173 23-166) (antibody)
IC50 (nM) of neutralization of TGF-β2 (10 pM), A549 IL-11 release assay (TGF-β2 [1]): 2.99 nM
IC50 (nM) of neutralization of TGF-β3 (10 pM), A549 IL-11 release assay (TGF-β3): 0.00276 nM

Substance: Cetuximab-T2m (from UniProt P37173 23-166) (antibody)
IC50 (nM) of neutralization of TGF-β3 (10 pM), A549 IL-11 release assay (TGF-β3): 0.0332 nM

Substance: FC5VHH-Fc-T2m (from UniProt P37173 23-166) (Fc fusion)
IC50 (nM) of neutralization of TGF-β1 (10 pM), A549 IL-11 release assay (TGF-β1 [2]): 0.00569 nM

Substance: FC5VHH-Fc-T22d35 (from UniProt P37173 23-166; P37173 23-166) (Fc fusion)
IC50 (nM) of neutralization of TGF-β1 (10 pM), A549 IL-11 release assay (TGF-β1 [2]): 0.00235 nM

Substance: RSV-F (from UniProt P03420 26-574) (natural protein)
Kd (Synagis-T22d35): 4.1 nM
koff (Synagis-T22d35): 0.00142 s⁻¹
kon (Synagis-T22d35): 35500 M⁻¹ s⁻¹
Kd (Synagis): 6.6 nM
koff (Synagis): 0.00168 s⁻¹
kon (Synagis): 25700 M⁻¹ s⁻¹

Substance: T22d35 (single-chain fusion of two TGF-β type II receptor ectodomains) (from UniProt P37173 23-166; P37173 23-166) (domain or fragment)
IC50 (nM) of neutralization of TGF-β1 (10 pM), A549 IL-11 release assay (TGF-β1 [3]): 3.25 nM
IC50 of neutralization of TGF-β1, A549 IL-11 release assay (Figure 2B) (TGF-β1 [4]): 0.5 nM

Next, values leading:

IC50 (nM) of neutralization of TGF-β2 (10 pM), A549 IL-11 release assay (TGF-β2 [1]): 3.33 nM
IC50 (nM) of neutralization of TGF-β3 (10 pM), A549 IL-11 release assay (TGF-β3): 0.00428 nM
Substance: Cetuximab-T22d35 (from UniProt P37173 23-166; P37173 23-166) (antibody)

IC50 (nM) of neutralization of TGF-β2 (10 pM), A549 IL-11 release assay (TGF-β2 [1]): 4.35 nM
IC50 (nM) of neutralization of TGF-β3 (10 pM), A549 IL-11 release assay (TGF-β3): 0.00249 nM
Substance: Herceptin-T22d35 (from UniProt P37173 23-166; P37173 23-166) (antibody)

IC50 (nM) of neutralization of TGF-β1 (10 pM), A549 IL-11 release assay (TGF-β1 [3]): 0.00331 nM
IC50 (nM) of neutralization of TGF-β2 (10 pM), A549 IL-11 release assay (TGF-β2 [5]): 4.76 nM
Substance: T22d35-hIgG2Fc(CC)ΔK (from UniProt P37173 23-166; P37173 23-166) (Fc fusion)

IC50 (nM) of neutralization of TGF-β2 (10 pM), A549 IL-11 release assay (TGF-β2 [5]): 1.41 nM
Substance: hIgG2Fc(CC)ΔK-T22d35 (from UniProt P37173 23-166; P37173 23-166) (Fc fusion)
